Experimental findings from the Immune Epitope Database (IEDB) are described below.

In general, Kd refers to the concentration at which binding is half-saturated. A lower Kd goes with tighter binding. One may read the IC50 as the concentration at which inhibition is half-maximal.

The target of test [1] is HLA-B*07:02. The test is described as follows: IEDB peptide-MHC binding, purified MHC/competitive/fluorescence; filed as Kd, often an IC50 or EC50 that approximates it; ≥ and ≤ were set here for values at or beyond the usual limits of such assays. As to conditions: source organism: Yersinia pestis Antiqua.
In test [2] the target is HLA-C*14:02. The test can be described thus: IEDB peptide-MHC binding, purified MHC/direct/fluorescence; filed as Kd, often an IC50 or EC50 that approximates it; ≥ and ≤ were set here for values at or beyond the usual limits of such assays.
Test [3] deals with HLA-B*15:01. The test can be described thus: IEDB peptide-MHC binding, purified MHC/competitive/fluorescence; ≥ and ≤ were set here for values at or beyond the usual limits of such assays.
Test [4] deals with HLA-B*07:02. The test is described as above.
Test [5] has as its target HLA-A*24:02. The description is as above.
Test [6] addresses HLA-A*02:01. Described as above.
For test [7], the target named is HLA-A*01:01. The test is described as above.
Test [8] has as its target HLA-B*15:01. The test is described as follows: IEDB peptide-MHC binding, purified MHC/competitive/fluorescence; filed as Kd, often an IC50 or EC50 that approximates it; ≥ and ≤ were set here for values at or beyond the usual limits of such assays.
The target of test [9] is HLA-B*57:01. The test is described as above.
The target in test [10] is HLA-B*27:03. Described as above. The conditions noted are these: source organism: Zaire ebolavirus.
Test [11] concerns the target HLA-A*69:01. The description is as above.
Test [12] concerns the target HLA-B*18:01. Described as above.
Test [13] has as its target HLA-B*39:01. The description is as above.
The target of test [14] is HLA-B*46:01. The test is described as above.
The target of test [15] is HLA-B*15:17. The description is as above.
For test [16], the target named is HLA-A*02:01. Described as above.
For test [17], the target named is HLA-B*51:01. The test is described as above.
Test [18] deals with HLA-A*02:03. The test is described as follows: IEDB peptide-MHC binding, purified MHC/direct/fluorescence; filed as Kd, often an IC50 or EC50 that approximates it; ≥ and ≤ were set here for values at or beyond the usual limits of such assays.
The target of test [19] is HLA-A*68:02. The test is described as above.
Test [20] concerns the target HLA-A*03:01. The description is as above.
Test [21] deals with HLA-A*29:02. The test is described as above.
Test [22] has as its target HLA-A*02:12. Described as above.
The target in test [23] is HLA-A*02:16. Described as above.
Test [24] addresses HLA-A*24:03. The test is described as above.
Test [25] has as its target HLA-A*02:19. The test is described as above.
Test [26] addresses HLA-A*02:11. The description is as above.
The target in test [27] is HLA-A*26:01. The test is described as above. The conditions noted are these: source organism: Zaire ebolavirus.
In test [28] the target is HLA-A*23:01. Described as above.
The target in test [29] is HLA-B*08:01. The test can be described thus: IEDB peptide-MHC binding, purified MHC/competitive/fluorescence; ≥ and ≤ were set here for values at or beyond the usual limits of such assays.
Test [30] concerns the target HLA-A*24:02. The test can be described thus: IEDB peptide-MHC binding, purified MHC/competitive/fluorescence; filed as Kd, often an IC50 or EC50 that approximates it; ≥ and ≤ were set here for values at or beyond the usual limits of such assays.
Test [31] concerns the target HLA-B*18:01. The test can be described thus: IEDB peptide-MHC binding, purified MHC/direct/fluorescence; filed as Kd, often an IC50 or EC50 that approximates it; ≥ and ≤ were set here for values at or beyond the usual limits of such assays. The conditions noted are these: source organism: Alto Paraguay hantavirus.
The target in test [32] is HLA-B*40:01. The description is as above. The conditions noted are these: source organism: Alto Paraguay hantavirus.
Test [33] concerns the target HLA-B*27:05. The test can be described thus: IEDB peptide-MHC binding, purified MHC/competitive/fluorescence; filed as Kd, often an IC50 or EC50 that approximates it; ≥ and ≤ were set here for values at or beyond the usual limits of such assays. As to conditions: source organism: Orthohantavirus dobravaense.
The target in test [34] is HLA-A*26:01. The test is described as above. The conditions noted are these: source organism: Orthohantavirus dobravaense.
In test [35] the target is HLA-A*03:01. The test can be described thus: IEDB peptide-MHC binding, purified MHC/competitive/fluorescence; ≥ and ≤ were set here for values at or beyond the usual limits of such assays. As to conditions: source organism: Sudan ebolavirus.
The target in test [36] is HLA-A*11:01. Described as above. As to conditions: source organism: Sudan ebolavirus.
[37] abbreviates: source organism: Zaire ebolavirus.
Where [38] appears, read: source organism: Vaccinia virus WR.
Where [39] appears, read: source organism: Vaccinia virus.
Where [40] appears, read: source organism: Vaccinia virus Copenhagen.
Setting [41] is: source organism: Orthohantavirus dobravaense.
Setting [42] is: source organism: Orthohantavirus sangassouense.

As for AKRYEKSAM, the figures for the Kd in test [1] and in test [2] (source organism: Yersinia pestis Antiqua) were not below 20 µM and 1.05 µM, respectively.

The sequence APPPQRAAM yielded a Kd in test [2] (source organism: Mycobacterium tuberculosis variant bovis BCG str. Pasteur 1173P2) of 0.061 µM.

Take AQPKCNPNL: the IC50 in test [3] (setting [37]) was not below 93.5 µM; in test [4] (setting [37]), not below 121 µM; in test [5] (setting [37]), 12.1 µM; in test [6] (setting [37]), 47.6 µM.

As for ASENSSAMV, the values for the IC50 in test [6] (setting [37]) and in test [7] (setting [37]) were not below 147 µM and 43.5 µM, respectively.

EAEKQLQQY showed an IC50 in test [7] (setting [37]) of 18.1 µM. In addition, the Kd in test [8] (setting [37]), in test [9] (setting [37]), in [10], in test [11] (setting [37]), in test [12] (setting [37]) and in [13] (setting [37]) was not below 20 µM in each case. Also, the Kd in test [14] (setting [37]), in test [15] (setting [37]), in test [16] (setting [37]), in test [17] (setting [37]), in [18] (setting [37]) and in test [19] (setting [37]) was not below 20 µM throughout. Also, the Kd in test [20] (setting [37]), in test [21] (setting [37]), in [22] (setting [37]), in [23] (setting [37]), in test [24] (setting [37]) and in test [25] (setting [37]) was not below 20 µM throughout. In addition, the Kd in test [26] (setting [37]) was not below 20 µM; in test [27], 2.24 µM; in test [28] (setting [37]) it was not below 20 µM.

Regarding FGLYKSINV, the IC50 was 37 µM in test [29] (setting [38]) and 0.744 µM in test [6] (setting [38]).

In the case of IDILRSLET, the IC50 in test [29] (setting [39]) is not below 514 µM; in test [6] (setting [39]), 44.3 µM.

IPNSLHSLS gave an IC50 in test [4] (setting [40]) not below 136 µM.

ITPKTHFLF displayed a dissociation constant (Kd) in test [30] (source organism: Giardia intestinalis ATCC 50581) of 0.0002 µM.

As for IWGGTSFLF, in test [30] (source organism: Salmonella enterica subsp. enterica serovar Typhi), the Kd is not above 0.0001 µM.

As for KEISNQEPL, the results for the Kd in test [31], in [32] and in test [2] (setting [41]) were 0.357 µM, 0.0032 µM and 2.07 µM, respectively.

Consider KHHTKIDSM, for which the half-maximal inhibitory concentration (IC50) in [29] (source organism: Variola virus) was not below 209 µM; in test [5] (source organism: Variola virus), 1.69 µM.

As to MRNTIMASK, the Kd in test [8] (setting [41]) was not below 20 µM; in [9] (setting [41]), not below 20 µM; in [33], 0.144 µM; in test [11] (setting [41]) it was not below 20 µM; in test [12] (setting [41]) it was not below 20 µM; in [13] (setting [41]), not below 20 µM. Further, the dissociation constant (Kd) in [34], in [14] (setting [41]), in test [15] (setting [41]), in [16] (setting [41]), in [17] (setting [41]) and in [18] (setting [42]) was not below 20 µM in each case. In addition, the Kd in test [19] (setting [42]), in test [20] (setting [42]), in test [21] (setting [42]), in [22] (setting [42]), in [23] (setting [42]) and in [24] (setting [42]) was not below 20 µM each time. The Kd in [25] (setting [42]), in test [26] (setting [42]) and in [28] (setting [42]) was not below 20 µM in each case.

With RQLAKAIIT, in [3] (setting [40]), the IC50 was determined as 40.8 µM. This lies in the double-digit micromolar range.

Regarding SFERFEIF, the Kd in test [30] (source organism: Influenza A virus (A/Harbin/1/1988(H1N2))) is 0.237 µM.

Regarding STDIPSATK, the half-maximal inhibitory concentration (IC50) is 65.6 µM in [35], 1.47 µM in [36] and not below 76.4 µM in test [7] (source organism: Sudan ebolavirus).

For the sequence VPSATKRWG, in test [4] (setting [37]), the IC50 turned out to be 64.6 µM.

On to VSHLTTLAT, for which the values for the IC50 in [3] (setting [37]) and in test [6] (setting [37]) were 28.7 µM and not below 719 µM, respectively.

On to YQSYSENGM, for which the figures for the IC50 in [3] (setting [37]) and in [6] (setting [37]) were 16.7 µM and 27.9 µM, respectively.
